# Measured values reported in the nanobody polyreactivity screen of Harvey et al. (2022).
# Assay: yeast display, Sf9 membrane polyspecificity reagent, FACS + sequencing; frameworks hold sequencing errors
# Method in brief: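 Galactose induction of a Saccharomyces cerevisiae BJ5465 synthetic nanobody display library ran 36–48 hours. The cells were then stained for 1 hour at 4 °C with 10% biotinylated, detergent-solubilized Sf9 membrane reagent, pulled down on streptavidin microbeads and FACS-sorted into low and high (top ~1%) gates on expression and reagent-binding fluorescence. Labels for polyreactivity follow the gate of origin.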
row,Sequence,polyreactivity (PSR sort gate)
1,QVQLVESGGGLVQAGGSLRLSCAASGSNFAAYTMGWYRQAPGKERELVAAISVSTVSTYYADSVKGRFTISRDNAKNTVYLQMYSLTPEDTAVYYCIADATDSYPEKYEHDSWGQGTQVTVSS,low polyreactivity
2,QVQLVESGGGLVQAGGSLRLSCAASGSNFDNAKGWYRQAPGKERELVAAITSGGITNYADSVKGRFTNSRDNAKKTVYLQMNSQKPEDTAVYYCNTMSPTQTKYDYWGQGTQVTVSS,low polyreactivity
3,QVQLVESGGGLVQAGGSLRLSCAASGSNFDPNAMGWYRQAPGKERELVAAISWSGGSTYYADSVKGRFTISRDNAKNTVYLQMNSLKPEDTAVSYCNAQFYDSYSYTNDDWGQGTLVTVSS,low polyreactivity
4,QVQLVESGGGLVQAGGSLRLSCAASGSNFGFYAMGWYRQAPGKERELVAAIDSGDSTNYADSVKGRFTISRDNAKNTVYLQMNSLKPEDTAVYYCNAEAWWYFWFDYWGQGTQVTVSS,low polyreactivity
5,QVQLVESGGGLVQAGGSLRLSCAASGSNFGPYAMGWSRPAPGKEMELVASITWTGGRTYYADSVKGRFTISLDNAKNTVYLQMNSLKPEDTAVYYCAADYSPSTWYLYYTLYYYWGQGTQVTVSS,low polyreactivity
6,QVQLVESGGGLVQAGGSLRLSCAASGSNFGPYAMGWYRQAPGKERELVAAISYSSVRTYYADSVKGRFTISRDNAKNTVYLQMNSLKPEVTAVYYCNAYFRYAYPSKMDYWGQGTQVTVSS,low polyreactivity
7,QVQLVESGGGLVQAGGSLRLSCAASGSNFHGNSLGRYRQGTGKERELVAAISQSGDSTYYADSVKGRFTISRDNAKNTVYLQMNSLKPEDTAVYYCAARSGYRGYYHFYYWGQGTQVTVSS,high polyreactivity
8,QVQLVESGGGLVQAGGSLRLSCAASGSNFLAYAMGWYRQAPGKERELVADISWGGGSTSYADSVKGRFTISRDNAKNTVYLQMNSLKPEDTAVYYCNKGSFSKRRDYYWGQGTQVTVSS,high polyreactivity
9,QVQLVESGGGLVQAGGSLRLSCAASGSNFLGNAMGWSIQAPGKERELVAAISSITGRTYYADSVKGRFTISRDNAKNTVYLQMNSLKPEDTAVYYCAAVQGANYYNEFDYWGQGTQVTVSS,high polyreactivity
10,QVQLVESGGGLVQAGGSLRLSCAASGSNFLHNAMGWYRQAPGKERELDAAISGTGGRTYYADSVKGRFTISRDTANNTVYLQMNGLKPEDTAVYYWAARGSHVSIPRYNYWGQGTQVTVSS,high polyreactivity
11,QVQLVESGGGLVQAGGSLRLSCAASGSNFPHYTMGWYRQAPAKERELVAAISNYGSSTYYADSVKGRFTISRDNAKNTVYLQMNSLKPEDTAVYYCNADDYGYSPGVNYWGQGTQVTVSS,low polyreactivity
12,QVQLVESGGGLVQAGGSLRLSCAASGSNFRGNAKGWSRQAPGKERELVAAISKSGGSTYYADSVKGRFTISRDNAKNTVYLQMNSLKPEDTAVYYCAARTTYLYGMYYWGQGTQVTVSS,low polyreactivity
13,QVQLVESGGGLVQAGGSLRLSCAASGSNFRLYAMGWYRHAPGKERELVATISGSAGRTYYADSVKGRFTISRDYAKNTVYLQMNSLKPEDTAVYYCAARWYQEYFWGQGTQVTVSS,high polyreactivity
14,QVQLVESGGGLVQAGGSLRLSCAASGSNFRVNAMGWYRQAPGKERELVAASSSGGSTHYADSVKGRFTISRDNAKNTFYLQMISLKPEDTAVYYCAVRYALGPYLWYYWGQGTQVTVSS,high polyreactivity
15,QVQLVESGGGLVQAGGSLRLSCAASGSNFRVYAMGWYSQAAGKERELVAAISRSGSITYYADSVKGRFTISRDNAKNTVYLQMNSLKPEDTAVYYCAARTYCRFTASTYYYWGQGTQVTVSS,high polyreactivity
16,QVQLVESGGGLVQAGGSLRLSCAASGSNFSAYMGWYRQAPGKERELVADISSTGTTYYADSVKGRFTISRDNAKNTVYLQMNSLKPEDTAVYYCNADYFLQQEVTFDYWGQGSQVTVSS,high polyreactivity

row,Sequence,polyreactivity (PSR sort gate)
1,QVQLVESGGGLVQAGGSLRLSCAASGSNFSGNAMGWYRQAPGKERELVAAISRRGGRTYYADSVKGRFTISRDNAKNTVYLQMNSLIPEDTAVYYCNADSVRYDYSAYDYEYWGQGTQVNVSS,high polyreactivity
2,QVQLVESGGGLVQAGGSLRLSCAASGSNFSRYAMGWYTQAPGKERELVAAISKSGGSTYYADSVKGRFTISRDNAKNTVYLEMNSLIPEDTAVYYCNARDSPVQRRAEPYGYWGQGTQVTVSS,high polyreactivity
3,QVQLVESGGGLVQAGGSLRLSCAASGSNFSYYTMGWYRRATGKERELVAGITWSGGGTSYADSVKGRFTISRDNAKNTVYVQMNSLKPEDTAVYYCAAVDIGRYYRLDYWGQGTQVTVSS,low polyreactivity
4,QVQLVESGGGLVQAGGSLRLSCAASGSNFTYYAMGWYRQAPGKEREFVAAINRSGGSTYYADSVKGRFTISRDNAKNTVYLQMNSLKPEDTAVYYCAARRGSGALRYNYWGQGTQVTVSS,high polyreactivity
5,QVQLVESGGGLVQAGGSLRLSCAASGSNFTYYAMGWYRQAPGKERELVAAISYSGGTTYYADSVKGRFTISRDNAKNTVYLQMNSLKPEDTAVYYCNVDADYESQWLSVGYDYWGQGTQVTVSS,low polyreactivity
6,QVQLVESGGGLVQAGGSLRLSCAASGSNFVGYAMGWYRQAPGKERELVAAISWSGDSTYYADSVKGRFTISRDNAKITVYLQMNSLKPEDTAVYYCAVDYAEIGPRREVEYDYWGHGTQVTVSS,low polyreactivity
7,QVQLVESGGGLVQAGGSLRLSCAASGSNFVTYAMGWSRQAPGKERELVAAISSSGTSTYYADSVKGRFTISRDNAKNTVYLQMNSLKPEDTAVYYCAAYLRGYDYGYWGQGTQVTVSS,high polyreactivity
8,QVQLVESGGGLVQAGGSLRLSCAASGSNFVTYAMGWYRQAPGKERELVAAISYSGGSTYADSVKGRFTISRDNAKNTVYLQMNILKPEDTAVYYCNTDTSVDVRFDYWGQGTQVTVSS,low polyreactivity
9,QVQLVESGGGLVQAGGSLRLSCAASGSNFVVYAMGWYRQAPGKERELVAAITGSGGRTYYADSVKGRFTISRDNAKNTVYLQMNSLKPEDTAVYYCATDSRGGIFDYWGQGTQVTVSS,low polyreactivity
10,QVQLVESGGGLVQAGGSLRLSCAASGSNFYHYAMGWYRQAPGKERELVAAITRSGGSTYYADSVKGRFTISRDNAKNTVYLQLNSLKPEDTAVYYCAKDPDSYNFLTSNWYDYWGQGTQVTVSS,low polyreactivity
11,QVQLVESGGGLVQAGGSLRLSCAASGSNFYSYVMGWYRQAPGKERELVAAISRNGQSTYYADSVKGRFTISRDNAKNTVYLQMNSLKPEDTAVYYCAARSRDKYDYWGQGTQVTVSS,high polyreactivity
12,QVQLVESGGGLVQAGGSLRLSCAASGSNISDNEMGWYRPAPGKESELVAAINWGGTNTYYADSVKGRYTISRDNAKNTVYLQINRLKPEDTAVYYCNADIPRRPIRHYLYDYWGQGTQVTVSS,low polyreactivity
13,QVQLVESGGGLVQAGGSLRLSCAASGSNLGNNDMGWYRQAPGKERQLVAAISRSDVSTFYADSVKGRFTISRDNAKNTVYLQMNSLKPEDTAVSSCAARTGRGDRTRRYYYWGQGTQVTVSS,high polyreactivity
14,QVQLVESGGGLVQAGGSLRLSCAASGSNVAVYVMGWYRQAPGKERELVAAISISAARTYYADSVKGRFTISRDNAKNTVYLQMNSLKPEDTAVYYGAARLVFRNDSWGQGTQVTVSS,high polyreactivity
15,QVQLVESGGGLVQAGGSLRLSCAASGSPFRHYALGWYRQAPGKERELVAVISWGGTSTYYADSGKGRFTISRDNAKNTVYLQMNSLKPEDSAVYYCNADSNWYYQWNYYGLYDYWGQGTQVTVSS,low polyreactivity
16,QVQLVESGGGLVQAGGSLRLSCAASGSRNAMGWYRQEPGKERQFVAAITWNGGSTYYADSVKGRFTITRDNAKNTVYLQMNSLKPEDTAVYYCAADVVFPFSVGYDYWGQGTQVTVSS,low polyreactivity
